Measurements as given in the DeepSol protein solubility set.

Experiment: soluble on expression in E. coli; label from the status in PepcDB or PDB records

Sequence	soluble on expression in E. coli
GMSPTVLPATQADFPKIVDVLVEAFANDPTFLRWIPQPDPGSAKLRALFELQIEKQYAVAGNIDVARDSEGEIVGVALWDRPDGNHSAKDQAAMLPRLVSIFGIKAAQVAWTDLSSARFHPKFPHWYLYTVATSSSARGTGVGSALLNHGIARAGDEAIYLEATSTRAAQLYNRLGFVPLGYIPSDDDGTPELAMWKPPAMPTV	soluble
MGSDKIHHHHHHMPTNVTAEYLAAEEEYRNAKTIPEKIRALEKMYALVPKHKGTEKLRLQIKRKLAELRKELEKQRQQRKGGGYSLAVKKEGAAQIVLVGLPNVGKSELLKALTGVDVESADYPFTTTEPVPAMLNYKDVQIQLVEVPGLIEGAALGKGMGPQLLAVVRNADAIAIVVDLSEDPVRQMNILLQEFERAGIKVNKKKPKVEIRKTPSGGIVINGIENIKGDIDEVMKMLREEKIHSAEITVMEPVTLEEFADALDDSLVWKKAIIIANKGDAPGSRANYEKLVKAFGERFKIIPVSAKKRINLEAVKEAIYEIADIIRVFTKSPGEEPAYPPIALRKGATVQDVAERIHKDLVKNFKYARVWGKSVKFPGQRVGLDHVLEDGDIVEIHAR	not soluble
MASPELAEKLKKRLDGTDQEPETNPHQAPPPAPVIPQKIVENPYIPSVDTSIDDLIFKALEKKEENNNNNNNNNSNSTTTTPLEIKTERNQQHEHTTIDPRSPPPKRSILELLEQERLENELQQQSAPVPKTPVMVITKGAFPRSASPRRQQFVRENEDGNELEKRLAAQRMKKYTEEMESLVQKQVDVLDQIMSSPPPPPTSPPQLPPTPPARITSVRSDESIEEEERRRKESEETASFEELEAEIMRISRSPVPPPVLSIPPPPPPNIPLPTIPQEVQSPPSPRPTSVPPPIPSPGPSEDVNMDELIESFSDSVIFNNSMSPPPPLPPLRESSLETLEVTPEDPVTESKVEASPTPLPKATESLNESSIKALEGLEVKALEAQEASDDRPSAPTPIRDSSLPPPPPPKPETPLAIRRAGPIPTPQLLEMIHQEDCSIRPSSPTSVSHGSRPQSPAVPKKPSVTVSPLGLLCDPNLSIEKPEEMKTEDTKPVETAPAPVDEAELNDALDRRNKINEATCLTKIFPSLARMFR	not soluble
MGSDKIHHHHHHMEIKQLRYFIEVAKREHISETALELNIAQSAISRQITLLEQELNVSLFKKQGRNITLTSEGKLLFNEALRIIEHLDSTIEQFQSHGLTKNKSIYIGYDESDVSHMLLPLIQTFHLQNDTHVIPSLLDHDTIINSVLNGNIDIGFTELTPEIRKHKQLHMLPLFEEHYHLYAPSDDPITMATHPPLIQFEHSHIYCLAPFAETVKKQLRKITKSDVYTISSQPLAQYLLRQKEGYIISSQNIHLPESKSWIDIKLDHTELKRTICAITKEPYTKSDIGILLTLIQQLMTKTSTFH	not soluble
MCKDVSGQNLLVAPDAINHHVKTCRENMRYMHYIAPEYENNTELTSAADIYSFGICSLEIAVIGGLSGCQNGSSEGPVTEDVIEKAIRSLEDPMQQDFIRQCLRKDPAERPSARELLFHQILFEVHSLKLLSAHAIVDSKKYEDVSESAFRIKDNETIAATSKLREMAYCQVAAFQVDLEKFLDDVRNGIYPLTAFAPLAHQPSTTLRAYSNTNPSTLITTDISAPSSTHPSANSTITAETSVNTSLPGQSSQPSGTTTNTNGPSSIGKSASPEAVDKKIGEVTSTESTSKVEVEVNGANVTIGSSNGRDAGSPTPEEEGEPNGERDMRLENRHILEINVHIENEEMSIVLLLEDQMHRQLTTSINKGDNPETLTENLITHGFMCQLDSEGVEKAIAVAFDIRAARIAEGVQEEENETSTRESNSEAPIEHGTSSSITNSVKPIVDSVAPSSQTPTTTTSS	not soluble
MGKTSRDKRDIYYRLAKENKWRARSAFKLMQIDDEFQILKGVRRAVDLCAAPGSWSQVLSKRLYEEDQEAKIVAIDLQPMAPIPGVIQLQGDITSVDTANQVIKHFSGEKSDIVICDGAPDVTGIHSLDEFMQAELILAAFNITSHVLKEGGNFLAKIFRSRNSSLLYAQMKKYFKKVYLAKPRSSRQSSCEAFVLCLDYSPPEGFVPTMGKTSLDATDASAISPDIIDGFVTCGDLSGWDSEKSYPLDIDACFPKGEIDEEQKKRYEFKDVVQPPTDPAYKAALDKKKSGVFAKMSADLNRQLKAELSRGKDQKKTPAENVPSVEELEKAAEKFQL	not soluble
MGSDKIHHHHHHMANQLILLKKDFFTDEQQAVTVADRYPQDVFAEHTHEFCELVMVWRGNGLHVLNERPYRITRGDLFYIRAEDKHSYTSVNDLVLQNIIYCPERLKLNVNWQAMIPGFQGAQWHPHWRLGSMGMNQARQVINQLEHESNGRDPLANEMAELLFGQLVMTLKRHRYATDDLPATSRETLLDKLITALANSLECPFALDAFCQQEQCSERVLRQQFRAQTGMTINQYLRQVRICHAQYLLQHSPLMISEISMQCGFEDSNYFSVVFTRETGMTPSQWRHLSNQSD	not soluble
MRVVVVGTRGSALALAQTRFVVERLKETWPETEFKIRTIKTRGDQGASPREEAIFVKEIQEALLSREIDIAVHSLKDLPTESPRGLKIASVPRRQDPRDVFLGKAAKRLKDLPPGAVVGTSSVRRKAQILALRPDLVVRDLRGNVDTRLAALGNGEYDGIVLAAAGLIRLDLRNRIDEFLDPGEVLPAPGQGALALEVREGDDLAEELCYALHHPPSYHRVRAERAFLRGLGAGCLAPVGALAHVEEDGTLRLEGVLLTPDGKSFIRAEIEGDVSEAEELGLDLARDVLEQGGREILAQIR	soluble
MKKSSEVMHQACDACRKKKWKCSKTVPTCTNCLKYNLDCVYSPQVVRTPLTRAHLTEMENR	soluble
MSLKILVVGPSWVGDMMMSQSLYRTLRARYPQAIIDVMAPAWCRPLLSRMPEVNEAIPMPLGHGALAIGERRKLGHSVRERRYDRAYVLPNSFKSALVPFFANIPLRTGWRGEMRYGLLNDARVLDKDAWPLMVERYVALAYDNGVMRCAKDLPQPLVWPQLQVNEGEKSQACSAFNLSNDRPIIGFCPGAEFGPAKRWPHYHYAALAKKLIDDGYQIALFGSAKDNEAGKEIIAAISSEQQAWCRNLAGETQLEQAVILIAACKAVVTNDSGLMHVAAALDRPLVALYGPSSPDFTPPLSHKARVIRLITGYHKVRKGDAAEGYHQSLIDITPERVLQELNELLAEKTEHEEAEGGSHHHHHH	soluble
MCLIVFAWRPGHAQPLIVAANRDEFYARPSLPLGQWPELPQIHAGRDLEAGGTWLGVGAEGRFAALTNIRNPHQPPARRSRGELVARFLAGDVPLDDYLRDVVGRSVEYAGFNLLLGNAEQLWHYNARDPQPQRLEPGVYGLSNAGLDTPWPKLLKARAALQEVLHDPQPQALLALLSDPQTAPFADLPDTGVGLATESLLSSVFIASPSYGTRASTALIVHADGSRHLLERSFGPYGGHLGEVELKVLEHHHHHH	not soluble
MADTLGKSELEVIKPQKREIRKGQVRKHIITVKVRNEMGVLARIATLIAGKGYNIEGLSVGETHEKGISRMTIEVIGDDIVIEQVVKQLRRLIDTLKVSDLTDVPHVERELALIKVYTPSSRARDEVLRITEIFRGKVVDVSPDTYTIEVTGDEDKINAMIELLKPFGIKEMARTGKVAMRREMSIKEEENELEHHHHHH	not soluble
MGHHHHHHHHHHSSGHIDDDDLHMDMHSGTFNPQDFAWQGLTLTPAAAIHIRELVAKQPGMVGVRLGVKQTGCAGFGYVLDSVSEPDKDDLLFEHDGAKLFVPLQAMPFIDGTEVDFVREGLNQIFKFHNPKAQNECGCGESFGV	soluble
FTNPGQIVGRIDRDSGMTSTAPAMPDGDWQAYGRTEFGDRYSPLKQITPANVGQLEEAWRIRTGDLPTADDPLELTNENTPLKVNGMLYACTAHSKVLALDPDTGAEIWRFDPQIQSPVGFKGFAHMTCRGVSYYDEEQYARSDVGAPPAALSEAGKAVAASCPRRLFLPTADARLIAINADNGKVCEDFGVKGAVDLTAGIGPFTPGGYYSTSPAAVTRNLVIIGGHVTDNESTNEPSGVIRAFDVHDGKLVWNWDSGNPDETEPLAPGKFYTRNSPNMWSLASVDEKLGQVYLPLGNQMPDQWGGNRTPGAEKFSAGLVALDLNTGKLRWNYQFTHHDLWDMDVGSQPTLLDLKTADGVKPALIAPTKQGSLYVLDRRDGTPIVPIREVPAPQGAVEGDHTAPTQARSDLNLLRPPLTERDMWGSSPFDQMLCRIQFRSLRYEGQYTPPSEQGSLIYPGNVGVFNWGGVSVDPVRQILFTSPNYMAFVSQMVPRDKVPSGSKREGETSGVQPNTGAPYAVIMHPFMSPIGLPCQAPSWGDVAGIDLTTAKVVWQHKNGTSRDNTPVPIGLTVGVPSMGGSITTAGGVAFLSGTLDQYLRAYDVKDGKQLWQARLPAGGQATPMSYTGKDGRQYVLIVAGGHGSFGTRMGDYIIAYALPR	not soluble
MSLKCIAIDLDGTLLNKESVISAENREAIKRAVDAGILVTICTGRATFDVKALLDDLDIPIIAANGGTIHDTGYRLISRTLMDQEAGKAIADYLLSKNIYFEVYTDDHLLSPFDGEAKLHAELDILKSANPNEQTDDLWQGAMTQFKQFGIKPIPHIESVFDGGENIYKLLCFSFDMDKLKQAKEELKHHKKLAQTSSGKHIIEILPASSGKGRALTKLADIYGIETQDIYAIGDSPNDLSMFEVAGHRIAMENAIDELKEKSTFVTKSNDENGVAYFIDQLLSGQYAEGHHHHHH	soluble
MGSDKIHHHHHHMIKNQWYVVLSSRELKKGQLIGVTRFGEKLAFWRDSNGKVHCISDICCHRGASISHGKVLSNGERVMCPFHGFEYDSQGRVRTIPANGRNTPVPENFRVKSYPTYELADFIWIWYGDREPEKPPKYFDDITDELVYTEFKEVWNVHYSRAIENQLDPIHLPFVHYNTIGRGNRTVVDGPIVEWKDDEMFYFYVFNRIDDGTPARKPEEMDPKRKSKVYLEFKFPNIWQNHISEKIRVTAAFTPIDDDHTMIYLRFYVGLTGIKFLDKLIAVLGKPFNKIVLHQDKRVVETQIPKRSELRMGENLIPGDAPILEYRKKREALKSMQQNNRVK	not soluble
MKLALFDLDNTLLAGDSDFQWAQFLIEQQVLDREVYEARNIEFYEQYKAGTLDIHEFLDFQLKPLSRHPREQLNTWRSDFIERKIAPLIAPGARELIARHQAEKDLCIIITATNSFVTAPIARMLGIDHLIATEPEQKNGEFTGRVTGIPSFQAGKITRLEQWLDAHNLTWLSFLQSWFYSDSLNDLPLLKRVTHPVAVDPDATLHEHAKKSGWPIISLRQ	not soluble
KEKIAILVDVQNVYYTCREAYRSNFDYNQFWYVATQEKEVVSAKAYAIASNDPKQRQFHHILRGVGFEVMLKPYIQRRDGSAKGDWDVGITLDAIEIAPDVDRVILVSGDGDFSLLVERIQQRYNKKVTVYGVPRLTSQTLIDCADNFVAIDDDFL	not soluble
AAIDPNRIVALEWLPVELLLALGIVPYGVADTINYRLWVSEPPLPDSVIDVGLRTEPNLELLTEMKPSFMVWSAGYGPSPEMLARIAPGRGFNFSDGKQPLAMARKSLTEMADLLNLQSAAETHLAQYEDFIRSMKPRFVKRGARPLLLTTLIDPRHMLVFGPNSLFQEILDEYGIPNAWQGETNFWGSTAVSIDRLAAYKDVDVLCFDHDNSKDMDALMATPLWQAMPFVRAGRFQRVPAVWFYGATLSAMHFVRVLDNAIGGKA	soluble
MGSDKIHHHHHHMTLTKEQLLNRGIEVIDKAENEGITLRVIGGAAIALIAKKGSELYPRVYKDIDYFGLSSQSTKISRFLEGIGLIPNKRFNALHGHIRLMFFDPIINSTVDVFLDEFVMCHKLVLKDRLRIMKYTIPTSDLFLTKMQIIQLTENDKKDIAALLYDVELGERDDEKTMNYNYIAKILSEDWGFYKTYTINHDRVLEFMKNDKNREIIEPKLVKLREIIEKHPKSIKWKMRAKIGEKVKWYEEPEEVNTNFTQQ	not soluble
